Measurements published in US7897732B2, “Antibodies to heparin-binding growth factor (HBGF) polypeptides” (Childrens Hospital Research Foundation, priority 1997, dated 2011).

How the values were obtained:
Balb/c 3T3 fibroblasts = assay: DNA synthesis ([3H]thymidine incorporation) assay in confluent quiescent Balb/c 3T3 cells; format: cell-based
Experimental: To assess the relative mitogenic capability of HBGFs with IGF-1, EGF, bFGF, and PDGF-AB, DNA synthesis assays on 3T3 cells were performed (Table 4). Biologically active fractions containing the 0.3-0.6 M NaCl eluate from the Bio-Rex column were pooled, diluted 3-fold with 20 mM Tris-HCL (pH 7.4) containing 0.1% CHAPS, passed through a 0.45-μm membrane filter, placed in a siliconized polypropylene vessel, and applied with a peristaltic pump to an EconoPac heparin column (0.7×3.6 cm; Bio-Rad) at 2 ml/min. The heparin column was then washed with 50 ml of 20 mM Tris-HCl buffer, 0.2 M NaCl, 0.1% CHAPS and developed at 1 ml/min with a 40 ml gradient of 0.1-2.0 M NaCl in 20 mM Tris-HCl, 0.1% CHAPS (pH 7.4) using a fast protein liquid chromatography (FPLC) system (Pharmacia Biotech Inc.). Fractions (1 ml) were collected into siliconized tubes during NaCl gradient elution and tested for 3T3 cell mitogenic activity. Column fractions were tested for their ability to stimulate DNA synthesis as measured by [^3H]thymidine incorporation into the DNA of confluent quiescent Balb/c 3T3 cells grown in 200 μl of Dulbecco's modified Eagle's medium, 10% bovine calf serum in 96-well culture plates as described (Kim, G. Y., et al., Biol. Reprod. 52, 561-571 (1995)). Dose-response curves to purified growth factors from ULF were established by assaying each dose in triplicate, with data computed as mean±S.D. Statistical significance of the effects of 1-100 μg/ml porcine heparin (Sigma) on growth factor activity was determined by Students' t test.

[1] = Heparin affinity chromatography (NaCl required for elution); format: binding
Experimental: Fractions that contained HBGF activity (fractions 16-19 collected after the cation exchange chromatography and heparin affinity chromatography) were pooled, diluted, and subjected to a second cycle of heparin affinity FPLC using a TSK heparin 5PW column. To perform the second heparin affinity purification step, biologically active HBGF fractions containing the 0.8 M NaCl eluate from the EconoPac heparin purification step were pooled, diluted 3-fold with 20 mM Tris-HCl (pH 7.4), and clarified by passage through a 0.2-μm filter. The sample was applied at 2 ml/min to a TSK heparin 5PW column (0.8×7.5 cm; TosoHaas, Philadelphia, Pa.), that was washed and eluted as described above, except that CHAPS was omitted from the buffers and fractions of 0.5 ml were collected. […] HBGF polypeptide was again eluted by 0.8 M NaCl (fractions 31-36), but was resolved as two peaks of mitogenic activity which had distinct heparin binding properties. The activity peaks were termed HGBF-0.8-P1 for fractions 31-34 and HGBF-0.8-P2 for fractions 35 and 36. To assess the relative mitogenic capability of HBGFs with IGF-1, EGF, bFGF, and PDGF-AB, DNA synthesis assays on 3T3 cells were performed (Table 4). Biologically active fractions containing the 0.3-0.6 M NaCl eluate from the Bio-Rex column were pooled, diluted 3-fold with 20 mM Tris-HCL (pH 7.4) containing 0.1% CHAPS, passed through a 0.45-μm membrane filter, placed in a siliconized polypropylene vessel, and applied with a peristaltic pump to an EconoPac heparin column (0.7×3.6 cm; Bio-Rad) at 2 ml/min. The heparin column was then washed with 50 ml of 20 mM Tris-HCl buffer, 0.2 M NaCl, 0.1% CHAPS and developed at 1 ml/min with a 40 ml gradient of 0.1-2.0 M NaCl in 20 mM Tris-HCl, 0.1% CHAPS (pH 7.4) using a fast protein liquid chromatography (FPLC) system (Pharmacia Biotech Inc.). Fractions (1 ml) were collected into siliconized tubes during NaCl gradient elution and tested for 3T3 cell mitogenic activity.

[2] = preparation after C8HPLC (step 1), bioactivity diminished due to acid exposure

Molecule	ED50: concentration of HBGF-0.8 preparation required to give 50% maximal DNA synthesis (Balb/c 3T3 fibroblasts; [2]) [µg/mL]	ED50: concentration of HBGF-0.8 preparation required to give 50% maximal DNA synthesis (Balb/c 3T3 fibroblasts; preparation after C8HPLC, step 2, bioactivity diminished due to acid exposure) [µg/mL]	ED50: concentration of HBGF-0.8 preparation required to give 50% maximal DNA synthesis (Balb/c 3T3 fibroblasts; preparation after TSK-Hep step) [µg/mL]	NaCl required for elution from a heparin affinity column [1] [M]	Heparin affinity as compared with HBGF-0.8-P2 ([1]; TSK heparin 5PW column)
HBGF-0.8-P1: 10-kDa heparin-binding growth factor; N-terminally truncated porcine CTGF starting at residue 247 (SEQ ID NO: 1 N-terminus) (protein) EENIKKGKKCIRTPKISKPVKFELSGCTSVKTYRAKFCGVCTDGRCCTPHRTTTLPVEFKCPDGEVMKKSMMFIKTCACHYNCPGDNDIFESLYYRKMYGDMA	0.25	0.025	2.23	0.8	lower heparin affinity
HBGF-0.8-P2: 10-kDa heparin-binding growth factor; truncated porcine CTGF starting at residue 248 (SEQ ID NO: 2 N-terminus) (protein) ENIKKGKKCIRTPKISKPVKFELSGCTSVKTYRAKFCGVCTDGRCCTPHRTTTLPVEFKCPDGEVMKKSMMFIKTCACHYNCPGDNDIFESLYYRKMYGDMA	0.25	–	0.417	0.8	–
